# Experimental data taken from the DeepSol protein solubility set.
# Experiment: soluble on expression in E. coli; label from the status in PepcDB or PDB records
row,Sequence,soluble on expression in E. coli
1,MGSDKIHHHHHHMTLKVTLCDDSKMARKQLLRTLPDDWDAEVHQAEHGEQALTCLREGRAEVLFLDLNMPVKDGYETLQAIKEEQLETLVIVVSGDIQPEAQKRVQALGAMAFVKKPMKPEDIQTLLQQFGLYQPAAGQLKLADETPQAPANPLDVYREVSNVAMGQAGDHLARVLDTFIELPVPNVNFIAPSELHMAIESIDTNKQVAAVSQGFSGSGILGEALTLFNDASIDDIGKLLGAKLGESGSIKQQRIESLMDVASILSSACLNGLGQQLHVEFAASQPVLLGEHQSMRELIKHGEHRWQKILAIEIGYQLPEHKLAFDLLLLFPADAVKILDQQLAHWLQGDDE,not soluble
2,MGSDKIHHHHHHMLILYQFERTWGNPNLSHFCCKTETYLRMAGIEYAIKTTLPLFAPKGKLPYIKDGNIKLADSRFIIRHLKNRYKDLDEGLNPAEIALSLAMQRLIEEHLFWATMYTRWQYTDVNWQVNKKAIFDVLPPAIRDVAAVIYRYRIRRQIYGHGMGRHKPEEIFELGMQDIDALSACLGDKKYFLGDQPTTLDASAFGFLINTIACPIESPLKEYGLSKENLGDYIDRIKMQYYPDLQ,not soluble
3,GMTKKTGFFKRLKALTLPQKQLFATALCQRMLPNYQLFSEVCEFGDPAVLSTALELLWQSLYDPKLKFNIDVHLQRLEDNTPEPADFEAYGVYPAMDAVVAISTLLGAIQGKIEEDIVNISKLSSSTVANYIEAISDVDLVDEALDDFVFAHEVMEEEKELQNSLLEIIEENPKITAELVKGLRKDIIETGVSNIGISVA,soluble
4,MAHHHHHHMRRALHAAALPSRAPLTPQRYKSYVLKFLRGQLPHDLKDCAGALGCLYGTLPDVDEYRQFVVPLQVLQQYHQLGYAKLPRPVLDPPQVDILADEVNQLANNVEHHPKSEHLYATSLADLTGGPLFYCQGQWRCAWGMHDLVYLPTLTVAASQALGNRLVRLWYDEAFMKEARTGPCVPWQQNYVRWQHTTPVNHVSIMIALDTLNKDRGAPCLIPGSHRWREGQLLPPVPYDPTQSETQQLNTIWDITNDDEQEMLADTPPATVDLRRGEALLIHPKTLFATHGNRSLDAARCCCVHYMGEATCAVQDGPLLPHTTRFRAGTRVSGPFFPVVFDPAMTEDLLMLDNKEGGAAA,not soluble
5,MAHHHHHHMSHPKMKLVRRARKSIRERRMKACLKDLSSNLEKVEMRVFRQQKQKRQQQQRKGAGNHITVPPDVLRGVMNPELYHIECRLHQEACMPPPPPYEGYSQRERCDGARRRIGFVEFVTIAEMVRLGAMPGTPARVGI,not soluble
6,MSLGFKEYYRVFPTYTDINSQEYRSRIETLEPLLMKYMKKRGKVLDLACGVGGFSFLLEDYGFEVVGVDISEDMIRKAREYAKSRESNVEFIVGDARKLSFEDKTFDYVIFIDSIVHFEPLELNQVFKEVRRVLKPSGKFIMYFTDLRELLPRLKESLVVGQKYWISKVIPDQEERTVVIEFKSEQDSFRVRFNVWGKTGVELLAKLYFTKEAEEKVGNYSYLTVYNPKEGHHHHHH,soluble
7,MDHHHHHHHHMPRTTGMNVAVVGGGISGLAVAHHLRSRGTDAVLLESSARLGGAVGTHALAGYLVEQGPNSFLDREPATRALAAALNLEGRIRAADPAAKRRYVYTRGRLRSVPASPPAFLASDILPLGARLRVAGELFSRRAPEGVDESLAAFGRRHLGHRATQVLLDAVQTGIYAGDVEQLSVAATFPMLVKMEREHRSLILGAIRAQKAQRQAALPAGTAPKLSGALSTFDGGLQVLIDALAASLGDAAHVGARVEGLAREDGGWRLIIEEHGRRAELSVAQVVLAAPAHATAKLLRPLDDALAALVAGIAYAPIAVVHLGFDAGTLPAPDGFGFLVPAEEQRRMLGAIHASTTFPFRAEGGRVLYSCMVGGARQPGLVEQDEDALAALAREELKALAGVTARPSFTRVFRWPLGIPQYNLGHLERVAAIDAALQRLPGLHLIGNAYKGVGLNDCIRNAAQLADALVAGNTSHAP,soluble
8,MTDVVVAGGGLAGLVAARHLAESGRDVTVFEQRSDVGGRVRTVHEDGYTFDRGFQVMFTAYPAAKRELDIEALAPRTFTPGATIASPNHRSVLSDPLRNPSAAPQTLLNTDVRTADKLRLFRLQRELAGVEPVELLSRGGTTIREYLADYGFSKRFVERFAAPFYGGITLDRSLGTDSSIFEYTYKMLSEGEIFVPADGMQAMPRQLADRARSAGATIETDAPVTELETHEGEVTAEVGRETVTAESAVVATDPQTAAELTDIDAIPTEPVGCVTQYFALPTNRAPATGQRIILNATDDRPNTVAPLSAVASEYAPAGMELYSATFLGTPEEDDAELAAEVRAALQSWYPNASFEALELLRTDRVPLSQFAQPPGYRDALPDPTAPEGNAVLAGDYTRWSAIQGALESGKVAADLLRLEHHHHHH,not soluble
9,MGSRCVAAANCPFGKLPGQSCVRKSDPSLAFNIPSNQDNCPMGQVCITAGESQVGHCCPVICPLNTTTDTRYSCDPDAAPALKCPSDSHYCYFLSGNFNKIQNFICNANSDGSFSQAACCRRPCNAMAPNALYVDYHCMPRGQLNSACTSNAQCGGGEGMECMKGQCQCQQNFHPAVDVLTNPLKNPSQSCSRDCESENLSKDTSCMKAVPLNSLCFIQKQCPQNSGCYRGRCMCRCGFAAKNGKCVEIPAPPTTTSAPAPAIIPGVPINPGNDLFKLFGQFLGAGNGGGGLNFG,not soluble
10,MGPIVSPALHAVQASRFEDVRQARSATGTRTDEGLRRSAGGRYAGASSRGTYQSGAGRVTNPLRRSKVSESLSIHHDVGGHQFETTVDGHRAYLAYMDLGKQTLDIYRTFVPDSLRGRGIAAALTEHALQYADRMGYSVIPSCSYVERYIERRQRQADPAALEHHHHHH,soluble
11,MSEQQVQELEKKWYALQVEPGKENEAKENLLKVLELEGLKDLVDEVIVPAEEKVVIRAQGKEKYRLSLKGNARDISVLGKKGVTTFRIENGEVKVVESVEGDTCVNAPPISKPGQKITCKENKTEAKIVLDNKIFPGYILIKAHMNDKLLMAIEKTPHVFRPVMVGGKPVPLKEEEVQNILNQIKRGVKPSKVEFEKGDQVRVIEGPFMNFTGTVEEVHPEKRKLTVMISIFGRMTPVELDFDQVEKI,soluble
12,MKKPNHSGSGQIRIIGGQWRGRKLPVPDSPGLRPTTDRVRETLFNWLAPVIVDAQCLDCFAGSGALGLEALSRYAAGATLIEMDRVVSQQLIKNLATLKAGNARVVNSNAMSFLAQKGTPHNIVFVDPPFRRGLLEETINLLEDNGWLADEALIYVESEVENGLPTVPANWSLHREKVAGQVAYRLYQHEAQGESDAD,not soluble
13,LGFFNRIEKTEKDKSQIDFGSIHGTGWLIDWKEVDKKDKKANKFTVYLATNLHVIQALKNREDHPPYNQFDINFVRTVDFRIGKYTDVKQFVAPS,not soluble
14,RPDPFPQNGLPAARLAMVAREMGHIAPFVRAVYAAQFGRGLVISDPQVLAECWAEAGLPPEAMEQAKSPEIKAALFAQGERAAALDLFGAPSFVVGEEVFWGDDRLDQALALAAQS,not soluble
15,MSLSEASFLYLNDIHADPLYSPIIPSKHDCRGDHKKTIDPHKYGQYECDSPMELFESLVSNAKQTNEKPAFILLGGDLIAHGLNTDSKMLKQSFKNVTAPLEAAFPNTSIYITLGNNDFASDYGSFDTDADNFKTAYKVFGKWMNDEQSKTFLKGGYYYADFPEVNLRFLFLNSVMYAAKRDQTQHAEDPYDQFAWIESSYDDAVQKGFKVSVALHIPPGVYYYKNKLGWNEDYITKFSKIMKKCDFSFILSGHSHTDMFLPLYSPTADKDSVLYSLSAPSVSPVNYNNPGYRVFELSNGIVKDYTQYYADLLMNPSVLKWQVEYKFSDAYSASNVTRETINNAAEWVRTTGEGQWRYRERIYTRADEHNAFYYCALKALLPDDIVDCENKLNIDKLSAQPYYKEGHHHHHH,soluble
16,MKWRSRQLSFSSAKWYGDVIWIFDPGIIGAQIDNEGDLKKCFIQTLFHSTGSRQSIRIWWREIMLSLILRIYLDKFLPWISLSIKEVGESSVINFSLWGCLHGTRFRRWYSPFQKLSALAITKKDVISSSWRCFNGMRCN,soluble
17,EAVREMVCEDDLSQTFITDGSLPACDITLEQAQNLARHVWGQGFAPPSFTDEFHVVRQQPLGAEGKHKKVWLQKDGCEFEAMFWRCSEDIPEYIRTVYRPVANEWRNNLELQLYIDYWEAA,not soluble
18,MRILVSNDDGIFSPGIKALGLAMRALGEVFVVAPDMEQSAVGHGITVRRPLRFKHTQSAGFGEIPAYRVDGTPADCVVLGVHLLGRPDLVVSGINLGVNLGLDLTHSGTVAAALEGASLGIPSIAFSLDTSGEVLDFQEAARWALAIARAVGERGLPPGVLLNVNFPASRPKGLLVTRLSTHRFEDQVVERLDPEGKPYYWIAGTPAGEEEEGTDLWAVRRGYVSVTPVSLDLTAHGFLEALSGLLEGVAP,soluble
19,MPDQPLNQDGFPTASKGVEPDNLPDRVLVDGLKPKHQQLREILEEICTTQLQPGDMLPGERILEEKYGVSRITVRRAIGDLVASGRLKRARGKGTFVAHSPLISRLHLASFSAEMAAQKLSATSRILSSSRGPAPDDIADFFGTDRAAQHITLRRLRLGNGRPYAIDNGWYNSEFAPDLLENDVYNSVYSILDRVYGVPVTQAEQTVTAVAADEDTARLLDVTPGAPLLRILRQSLSGDKPVEWCVSLYRTDRYSLKTLVTRSEDL,soluble
20,GADGVGNASGDWHCDSTWSEGHVTTTSTRTWVLPTYNNHLYKRLGESLQSNTYNGFSTPWGYFDFNRFHCHFSPRDWQRLINNNWGMRPKAMRVKIFNIQVKEVTTSNGETTVANNLTSTVQIFADSSYELPYVMDAGQEGSLPPFPNDVFMVPQYGYCGLVTGNTSQQQTDRNAFYCLEYFPSQMLRTGNNFEITYSFEKVPFHSMYAHSQSLDRLMNPLIDQYLWGLQSTTTGTTLNAGTATTNFTKLRPTNFSNFKKNWLPGPSIKQQGFSKTANQNYKIPATGSDSLIKYETHSTLDGRWSALTPGPPMATAGPADSKFSNSQLIFAGPKQNGNTATVPGTLIFTSEEELAATNATDTDMWGNLPGGDQSNSNLPTVDRLTALGAVPGMVWQNRDIYYQGPIWAKIPHTDGHFHPSPLIGGFGLKHPPPQIFIKNTPVPANPATTFSSTPVNSFITQYSTGQVSVQIDWEIQKERSKRWNPEVQFTSNYGQQNSLLWAPDAAGKYTEPRAIGTRYLTHHL,soluble
21,DAQTRRRERRAEKQAQWKAANPLLVGVSAKPVNRP,soluble
22,MTKKVAIILANEFEDIEYSSPKEALENAGFNTVVIGDTANSEVVGKHGEKVTVDVGIAEAKPEDYDALLIPGGFSPDHLRGDTEGRYGTFAKYFTKNDVPTFAICHGPQILIDTDDLKGRTLTAVLNVRKDLSNAGAHVVDESVVVDNNIVTSRVPDDLDDFNREIVKQLQ,not soluble
23,MGSDKIHHHHHHMTDKGKNDLTSKAKDKARGNPEKPPYWFEIIVSDPQKRTGDPGSSSGYVSYQISTKTNNTSFYDNRGDPESIIVVHRRYSDLLLLHDILLNRFPTCIIPPLPDKKVFQYIAGDRFSQRFTQKRCHSLQNFLRRVSLHPDLSQSKVFKTFLVSKDWESHRKVLQDSLQPNKDEVTDAFMNAFKTVHKQNEEFTEIREKSDKLDRTVTKIDKLFHKVVKKNDSMSEDYTKLGSNLQELQELVTGENEELAAKLKIFNEGVTQLSYGLQDLTKYLDYEYIVDLKDLEHYIDSMRQLIKLKDQKQIDYEELSDYLTRSIKEKNNLISGYGGSNFFANKLEELAGINQEASRREKINKLEGKITSLTGELENAKKVADGFEQECLKEIDHFESVKTAEIKKSLGSLADHHIEFYERILEAWEKVDDSL,not soluble
24,DIESGLYALIGLFATSKTIDLVQVGLNQSKTVFIISENQEAIRQAILFKIDRGITRLSAKGGYTEDDKQILLCVIAQSEFSRLKEVIKEIDPEAFVVVMSASEVMGEGFTS,not soluble
